# From the DeepSol protein solubility set
# Experiment: soluble on expression in E. coli; label from the status in PepcDB or PDB records
row,Sequence,soluble on expression in E. coli
1,MGSSHHHHHHGKTIFVIVPTNEEQVAFLEALAKQDELNFDWQNPPTEPGQPVVILIPSDMVEWFLEMLKAKGIPFTVYVEEGGSENLYFQGGGGGGRTGFNTAYSRCTYLVMMGEYKQLLEPGTFPSNDRLPPHLRLDKLSYLDLRDTEIALPPVIDVSLSNRDQVRQLEGQLPSTERSDLHVHFGPIKSQTIIMTPSSNERYVRRRLGLSEKDRKNLEAESQQAFAQARS,soluble
2,MGSSHHHHHHGKTIFVIVPTNEEQVAFLEALAKQDELNFDWQNPPTEPGQPVVILIPSDMVEWFLEMLKAKGIPFTVYVEEGGSENLYFQGGGGGGSECNISADERMDVPSEDYDVSIMIKAIHEVQDVLTSRQFATFSEVDTEIGKTLKRYEAFGDGFERFHVNLTKDALQSNDLQKSLKDMDKRCQDRLRDCASSQKDQINDILPFIRNTSSILVHGSGNLLALTIACSIQEHEGVRFYICEGRPARKGYPHGSGEQLLEKVLATPEGMRLKDKLHKYCTIVPDSGVSSVMNSVDFVIMGAYCVTEHGGLVHSTGSLQIAIVAAFRNVPCYVLCETFKFAHIFPLSTDDLKQPENGAGEVVPLVEFVPPSMITLIFSEQGIMPPSAVADEMFRFHTAPSAPGKRR,not soluble
3,MGSSHHHHHHGKTIFVIVPTNEEQVAFLEALAKQDELNFDWQNPPTEPGQPVVILIPSDMVEWFLEMLKAKGIPFTVYVEEGGSENLYFQGGGGGGVNPVVEFVDVGCAFGGMLFSLAAVFPATCMMGLEIRPKVVSFAQEKALALRQENAASLTQHYRNVWFEQMNVMKFGSNCFTKGQLSRLFFCYPDPHWKRKNIRRRIISPGLVQEYAYWLRHGGLVYTVSDVAELEEWMVQCLDDSPLFRRLAEAELCTPEHKQVLEIVTGASEDAQRTARKGLQKHFAVHMRI,not soluble
4,MGSSHHHHHHSSGEDRYKEKLLQKAKAEGVESIEELKKRLADQIEEKKKELNKIDPLRELEQHLNAGSRIHTNKEHKTTKMSNKSNEKSGNVLPKDKPYKTLDDYLKLDKIKDLSKQEVEFLWRAKWSNRDDSLVAVVPYVKTFQGMYKYAVKNPLFVLPLPRENAADGNKADKDSVPVELQYVQWQFAGPNTVHCLITSLAEYKLHQDFAKPHTTIQFHLDLANDKDMVLMNGQVESDSNVSLQDAQLLLLNVQRFYGAMGSETSIAKERIQLLEDFNKGSQNFDINKLIQLAQSMEN,soluble
5,MGSSHHHHHHSSGLVPRGSHMARQNLKSTDRAVQQMLDKAKREGIQTVWDRYEAMKPQCGFGETGLCCRHCLQGPCRINPFGDEPKVGICGATAEVIVARGLDRSIAAGAAGHSGHAKHLAHTLKKAVQGKAASYMIKDRTKLHSIAKRLGIPTEGQKDEDIALEVAKAALADFHEKDTPVLWVTTVLPPSRVKVLSAHGLIPAGIDHEIAEIMHRTSMGCDADAQNLLLGGLRCSLADLAGCYMGTDLADILFGTPAPVVTESNLGVLKADAVNVAVHGHNPVLSDIIVSVSKEMENEARAAGATGINVVGICCTGNEVLMRHGIPACTHSVSQEMAMITGALDAMILDYQCIQPSVATIAECTGTTVITTMEMSKITGATHVNFAEEAAVENAKQILRLAIDTFKRRKGKPVEIPNIKTKVVAGFSTEAIINALSKLNANDPLKPLIDNVVNGNIRGVCLFAGCNNVKVPQDQNFTTIARKLLKQNVLVVATGCGAGALMRHGFMDPANVDELCGDGLKAVLTAIGEANGLGGPLPPVLHMGSCVDNSRAVALVAALANRLGVDLDRLPVVASAAEAMHEKAVAIGTWAVTIGLPTHIGVLPPITGSLPVTQILTSSVKDITGGYFIVELDPETAADKLLAAINERRAGLGLPW,soluble
6,MGSSHHHHHHSSGLVPRGSHMASMKQIKKLLVANRGEIAIRIFRAAAELDISTVAIYSNEDKSSLHRYKADESYLVGSDLGPAESYLNIERIIDVAKQANVDAIHPGYGFLSENEQFARRCAEEGIKFIGPHLEHLDMFGDKVKARTTAIKADLPVIPGTDGPIKSYELAKEFAEEAGFPLMIKATSGGGGKGMRIVREESELEDAFHRAKSEAEKSFGNSEVYIERYIDNPKHIEVQVIGDEHGNIVHLFERDCSVQRRHQKVVEVAPSVGLSPTLRQRICDAAIQLMENIKYVNAGTVEFLVSGDEFFFIEVNPRVQVEHTITEMVTGIDIVKTQILVAAGADLFGEEINMPQQKDITTLGYAIQCRITTEDPLNDFMPDTGTIIAYRSSGGFGVRLDAGDGFQGAEISPYYDSLLVKLSTHAISFKQAEEKMVRSLREMRIRGVKTNIPFLINVMKNKKFTSGDYTTKFIEETPELFDIQPSLDRGTKTLEYIGNVTINGFPNVEKRPKPDYELASIPTVSSSKIASFSGTKQLLDEVGPKGVAEWVKKQDDVLLTDTTFRDAHQSLLATRVRTKDMINIASKTADVFKDGFSLEMWGGATFDVAYNFLKENPWERLERLRKAIPNVLFQMLLRASNAVGYKNYPDNVIHKFVQESAKAGIDVFRIFDSLNWVDQMKVANEAVQEAGKISEGTICYTGDILNPERSNIYTLEYYVKLAKELEREGFHILAIKDMAGLLKPKAAYELIGELKSAVDLPIHLHTHDTSGNGLLTYKQAIDAGVDIIDTAVASMSGLTSQPSANSLYYALNGFPRHLRTDIEGMESLSHYWSTVRTYYSDFESDIKSPNTEIYQHEMPGGQYSNLSQQAKSLGLGERFDEVKDMYRRVNFLFGDIVKVTPSSKVVGDMALYMVQNDLDEQSVITDGYKLDFPESVVSFFKGEIGQPVNGFNKDLQAVILKGQEALTARPGEYLEPVDFEKVRELLEEEQQGPVTEQDIISYVLYPKVYEQYIQTRNQYGNLSLLDTPTFFFGMRNGETVEIEIDKGKRLIIKLETISEPDENGNRTIYYAMNGQARRIYIKDENVHTNANVKPKADKSNPSHIGAQMPGSVTEVKVSVGETVKANQPLLITEAMKMETTIQAPFDGVIKQVTVNNGDTIATGDLLIEIEKATD,soluble
7,MGSSHHHHHHSSGLVPRGSHMKVYYECAPCFLRQAREAIDLATDDEELKLRVMENILELLSERFRRGQVSNELGTRMHRLIKDMTGSEDPYLDEKRRCNEIALRFLPTVRDYLECHSDLESHVKVAITGNIIDFGALGLDFDHDRGIQESLRAPLTINHVPLLEDRLREASEVLYLLDNTGEILFDRPLIEKLAGYDVSVKVAVKGEPILNDACMEDALEAGLDEVAEIVTTGTDSVGIVYSDLSDEFRDMLDGTELVIAKGMGNYEGLTEISDGSRDIFCLLNAKCSAIARDLGVARGDNVAVKI,soluble
8,MGSSHHHHHHSSGLVPRGSHMMEVGFLGLGIMGKAMSMNLLKNGFKVTVWNRTLSKCDELVEHGASVCESPAEVIKKCKYTIAMLSDPCAALSVVFDKGGVLEQICEGKGYIDMSTVDAETSLKINEAITGKGGRFVEGPVSGSKKPAEDGQLIILAAGDKALFEESIPAFDVLGKRSFYLGQVGNGAKMKLIVNMIMGSMMNAFSEGLVLADKSGLSSDTLLDILDLGAMTNPMFKGKGPSMNKSSYPPAFPLKHQQKDMRLALALGDENAVSMPVAAAANEAFKKARSLGLGDLDFSAVIEAVKFSRE,soluble
9,MGSSHHHHHHSSGLVPRGSHMNVKKFPEGFLWGAATSSYQIEGAWNEDGKGESIWDRFTRIPGKIKNGDSGDVACDHYHRYEQDLDLMRQLGLKTYRFSIAWARIQPDSSRQINQRGLDFYRRLVEGLHKRDILPMATLYHWDLPQWVEDEGGWLSRESASRFAEYTHALVAALGDQIPLWVTHNEPMVTVWAGYHMGLFAPGLKDPTLGGRVAHHLLLSHGQALQAFRALSPAGSQMGITLNFNTIYPVSAEPADVEAARRMHSFQNELFLEPLIRGQYNQATLMAYPNLPEFIAPEDMQTISAPIDFLGVNYYNPMRVKSSPQPPGIEVVQVESPVTAMGWEIAPEGLYDLLMGITRTYGKLPIYITENGAAFDDQPDQSGQVNDPQRVGYFQGHIGAARRALADGVDLRGYYAWSLLDNFEWAEGYSKRFGIIYVDFETQQRTLKQSAQWYRDVIANNGLED,soluble
10,MGSSHHHHHHSSGLVPRGSHMRKVKIGELINSLVSEVEAIDASDRPQGDKTKKIKAAALKYKNALFNDKRKFRGKGLEKRISANTFNSYMSRARKRFDDRLHHNFEKNVIKLSEKYPLYSEELSSWLSMPAASIRQHMSRLQAKLKEIMPLAEDLSNIKIGTKNSEAKINKLANKYPEWQFAISDLNSEDWKDKRDYLYKLFQQGSSLLEDLNNLKVNHEVLYHLQLSSAERTSIQQRWANVLSEKKRNVVVIDYPRYMQAIYDIINKPIVSFDLTTRRGMAPLAFALAALSGRRMIEIMLQGEFSVAGKYTVTFLGQAKKRSEDKGISRKIYTLCDATLFVSLVNELRSCPAAADFDEVIKGYGENDTRSENGRINAILATAFNPWVKTFLGDDRRVYKDSRAIYARIAYEMFFRVDPRWKNVDEDVFFMEILGHDDENTQLHYKQFKLANFSRTWRPNVGEENARLAALQKLDSMMPDFARGDAGVRIHETVKQLVEQDPSIKITNSTLRPFNFSTRLIPRYLEFAADALGQFVGENGQWQLKDEAPAIVLPDEEI,soluble
11,MGSSHHHHHHSSGLVPRGSHVHNKVTIIGSGPAAHTAAIYLARAEIKPILYEGMMANGIAAGGQLTTTTEIENFPGFPDGLTGSELMDRMREQSTKFGTEIITETVSKVDLSSKPFKLWTEFNEDAEPVTTDAIILATGASAKRMHLPGEETYWQKGISACAVCDGAVPIFRNKPLAVIGGGDSACEEAQFLTKYGSKVFMLVRKDHLRASTIMQKRAEKNEKIEILYNTVALEAKGDGKLLNALRIKNTKKNEETDLPVSGLFYAIGHTPATKIVAGQVDTDEAGYIKTVPGSSLTSVPGFFAAGDVQDSKYRQAITSAGSGCMAALDAEKYLTSLE,soluble
12,MGSSHHHHHHSSGLVPRSGHMEPRGTKRKAEKTEVEKPLNKLPRAVPSLRTQPSLYSGPFPFYRRPSELGCFSLDAQRQYHGDARALRYYSPPPINGPGPDFDLRDGYPDRYQPRDEEVQERLDHLLRWVLEHRNQLEGGPGWLAGATVTWRGHLTKLLTTPYERQEGWQLAASRFQGTLYLSEVETPAARAQRLARPPLLRELMYMGYKFEQYMCADKPGGSPDPSGEVNTNVAYCSVLRSRLGNHPLLFSGEVDCLNPQAPCTQPPSCYVELKTSKEMHSPGQWRSFYRHKLLKWWAQSFLPGVPHVVAGFRNPEGFVCSLKTFPTMEMFENVRNDREGWNPSVCMNFCAAFLSFAQSTVVQDDPRLVHLFSWEPGGPVTVSVHRDAPYAFLPSWYVETMTQDLPPLSKTPSPKD,soluble
13,MGSSHHHHHHSSGRENKYFQGHMRNVALITGITGQDGSYLAEFLLEKGYEVHGIVRRSSSFNTGRIEHLYKNPQAHIEGNMKLHYGDLTDSTCLVKIINEVKPTEIYNLGAQSHVKISFDLAEYTADVDGVGTLRLLDAVKTCGLINSVKFYQASTSELYGKVQEIPQKETTPFYPRSPYGAAKLYAYWIVVNFREAYNLFAVNGILFNHESPRRGANFVTRKISRSVAKIYLGQLECFSLGNLDAKRDWGHAKDYVEAMWLMLQNDEPEDFVIATGEVHSVREFVEKSFLHIGKTIVWEGKNENEVGRCKETGKVHVTVDLKYYRPTEVDFLQGDCTKAKQKLNWKPRVAFDELVREMVHADVELMRTNPNAGS,soluble
14,MGSSHHHHHHSSGRENLYFQGHMAQLYFYYSAMNAGKSTALLQSSYNYQERGMRTVVYTAEIDDRFGAGKVSSRIGLSSPAKLFNQNSSLFDEIRAEHEQQAIHCVLVDECQFLTRQQVYELSEVVDQLDIPVLCYGLRTDFRGELFIGSQYLLAWSDKLVELKTICFCGRKASMVLRLDQAGRPYNEGEQVVIGGNERYVSVCRKHYKEALQVDSLTAIQERHRHD,soluble
